The values below are quoted from earlier work in publication PMC3128988.

The data set addresses CD47 (Homo sapiens) (UniProt Q08722).
Chain of UniProt Q08722 (Q08722 19-323): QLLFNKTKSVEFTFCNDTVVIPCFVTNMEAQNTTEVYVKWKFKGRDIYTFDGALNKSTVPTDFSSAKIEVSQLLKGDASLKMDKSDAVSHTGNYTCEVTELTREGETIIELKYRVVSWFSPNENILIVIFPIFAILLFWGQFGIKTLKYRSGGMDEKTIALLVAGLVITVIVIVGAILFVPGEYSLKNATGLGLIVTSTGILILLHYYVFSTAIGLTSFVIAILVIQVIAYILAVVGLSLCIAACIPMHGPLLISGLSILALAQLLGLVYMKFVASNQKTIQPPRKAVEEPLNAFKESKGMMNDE

For orientation: Kd means a measure of binding affinity in units of concentration. Regarding SIRPα (from UniProt P78324), the Kd was 1000 nM.
